Source: paper PMC12056017

T1: CD80 fused to intracellular monomeric Cherry (mCherry), P33681
T1 chain: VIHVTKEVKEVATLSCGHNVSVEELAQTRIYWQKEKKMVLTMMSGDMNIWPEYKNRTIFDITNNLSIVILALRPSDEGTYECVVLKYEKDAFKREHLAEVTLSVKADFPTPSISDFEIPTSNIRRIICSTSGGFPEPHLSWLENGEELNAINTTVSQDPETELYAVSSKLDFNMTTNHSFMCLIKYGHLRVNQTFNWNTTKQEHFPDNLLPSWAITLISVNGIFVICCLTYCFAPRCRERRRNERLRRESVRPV

B1: CD80 fused to intracellular monomeric Cherry (mCherry) (protein)
chain: T1 chain
B2: CD80 fused to intracellular monomeric Cherry (mCherry), P33681 35-288 (ligand)
chain: T1 chain

Key:
[1] = molecular target: PD-1 ligand (PD-L1) fused to an intracellular monomeric green fluorescent protein (mGFP), Q9NZQ7; assay: DNA-PAINT super-resolution microscopy with nearest-neighbour analysis (SPINNA); CHO cells co-expressing CD80-mCherry and PD-L1-mEGFP, fixed with 4% PFA; labelled with anti-mCherry and anti-GFP nanobodies; two-round Exchange-PAINT, ~3 nm localization precision; model of monomers, homodimers …; conditions: other: DNA-PAINT super-resolution microscopy with nearest-neighbour analysis (SPINNA)
[2] = molecular target: T1, CD80 fused to intracellular monomeric …; assay: DNA-PAINT super-resolution microscopy with nearest-neighbour analysis (SPINNA); CHO cells co-expressing CD80-mCherry and PD-L1-mEGFP, fixed with 4% PFA; labelled with anti-mCherry and anti-GFP nanobodies; two-round Exchange-PAINT, ~3 nm localization precision; model of monomers, homodimers and heterodimers fitted to nearest-neighbour distances with density masks; 3 cells; conditions: remark: other sources report otherwise
[3] = molecular target: T1, CD80 fused to intracellular monomeric …; assay: as above; conditions: remark: other sources report otherwise

Chain of PD-1 ligand (PD-L1) fused to an intracellular monomeric green fluorescent protein (mGFP), Q9NZQ7 (Q9NZQ7 19-290): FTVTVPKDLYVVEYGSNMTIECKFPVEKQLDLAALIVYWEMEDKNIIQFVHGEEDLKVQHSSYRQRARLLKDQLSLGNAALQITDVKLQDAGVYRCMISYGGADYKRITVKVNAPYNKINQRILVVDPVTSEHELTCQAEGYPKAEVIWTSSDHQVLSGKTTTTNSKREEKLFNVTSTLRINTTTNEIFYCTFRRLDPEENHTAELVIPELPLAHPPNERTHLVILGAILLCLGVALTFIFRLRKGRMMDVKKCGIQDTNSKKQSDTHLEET

| Binder | percent of all molecules in heterodimers [1] | percent of all molecules in homodimers [2] [%] | percent of all molecules in homodimers [3] [%] |
| --- | --- | --- | --- |
| B1 | PD-L1 and CD80 heterodimers (27 ± 5) % | – | – |
| B2 | – | 11 | 9 |
